According to the nanobody polyreactivity screen of Harvey et al. (2022):

Test: yeast display, Sf9 membrane polyspecificity reagent, FACS + sequencing; frameworks hold sequencing errors
Summary of the method: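 Nanobodies from a synthetic yeast display library (Saccharomyces cerevisiae BJ5465), induced 36–48 hours with galactose, were stained 1 hour at 4 °C with 10% biotinylated, detergent-solubilized Sf9 membrane reagent, enriched on streptavidin microbeads, then FACS-sorted. Anti-HA (expression) and streptavidin (reagent binding) fluorescence set low and high (top ~1%) gates. Polyreactivity labels come from the gate of origin. Genes were colony-PCR amplified, MiSeq 2 × 250 sequenced and filtered by CDR length.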

Sequence	polyreactivity (PSR sort gate)
QVQLVESGGGLVQAGRSLRLSCAASGYTIRYYAMGWYRQAPGKERELVAAITNRGGTYYADSVKGRFTISRDNAKNTVYLQLNSLKPEDNAVYYCAARYYWIDFKFGGPRDYWGQGTQVTVSS	high polyreactivity
QVQLVESGGGLVQAGRSLRLSCAASVYILYHNAMGWYRQAPGKERELVAAISYSGGRTYYADSVKGRFTISRDNAKNTVYLQMNSLKPEDTSVYYCNALSVWRTGRGQEFDYWGQGTQVTVSS	high polyreactivity
QVQLVESGGGLVQAGRSLRLSCASSGRIFWDYAMGWYRQAPGKERELVAAISWGSGRTYYADSVKGRFTISRDNAKNTVYLQMNSLKPADSAVDYCAARSSYRKMDYWGQGTQVTVSS	high polyreactivity
QVQLVESGGGLVQAGRSLRLSFADSGVIVTSNAMGWYRQAPGKEREFVADITSSDSTYYADSVKGRFTISRDNAKNTVYLQMNSLKPEDTAVYYCAARGTTVRAYGYGFGYWGQGTQVTVSS	low polyreactivity
QVQLVESGGGLVQAGRSLRLSSAASGNTFAGNAMGWYRQAPGKERELVAAISWSGTRTYYADSVKGRFTISRDNAKNTVYLQMNSLKPEDTAVYYCAKLSTNKEYYWGQGTQVTVSS	high polyreactivity
QVQLVESGGGLVQAGRSLRLTCAASGIIFIGNAMGWYRQATGKERELVAAISRRGGRTYYADSVKGRFTISRDNAKNTVYLQMFSLKPEDTAVYSCNAEITVNDDDYWGQGTQVTVSS	high polyreactivity
QVQLVESGGGLVQAGRSLRLTCAASGRIFRRYAMGWSRQAPGKERELVAAIRTSGGNTYYADSVKGRFTISRDNAKNTVYLQMNSLKPEDTAVYYCAAERGRLVAIASDYWGQGTQVTVSS	high polyreactivity
QVQLVESGGGLVQAGRSLRLTCAASGRTLGYNAMGWYRQPPGKERELVAAITYSGSRTYYADSVKGRFTISRDNAKNTVYLQMNSLKPEDTAVYYCAAGGYIAYYYYRFDYWGQGTQVTVSS	high polyreactivity
QVQLVESGGGLVQAGRSLRLTCAASGSTFSIYVMGWYRQAPGKERELVAAITWSDGIKYYADSVKGRFTISRDNAKNTVYLQMNSLKRDDTAVYYCRDSHPSYRPGTVRYDYLGQGTQVTVSS	low polyreactivity
QVQLVESGGGLVQAGSSLRLSCAASGRIFGYYAMGWYRQAPGKEREFVASITYSGGRTYYADSVKGRFTISRDNAKNTVYLQMNSLKPEDTAVYYCAKRQSFLGVSYDYWGQGTQVTVSS	high polyreactivity
QVQLVESGGGLVQAGVILRLSCAASGRIFIPYAMGWYIQAPGKERELVAAISYRGGSTYYADSVKGRFTISRDNAKNTVYLQMNSLKPEDTAVYYCANYDYWGQGTQVTVSS	high polyreactivity
QVQLVESGGGLVQAGVRLRLSCPASGITFEGYAMGWYRKAPGKERELVAAIRSSGTSTYYADSVKGRFTISRDNAKNTVYLQMNSLKPEDTAVYYCNRARSSSRYDYWGQGTKVTVSS	low polyreactivity
QVQLVESGGGLVQAGVSLRIRCAASGSIFFFNAMGWYRQAPGKEREFVAAITSSSGRTYYAYSVKVRFTISRDNAKNTVYLQMKSLKPEDTAVYYCAAQVPEDNETVDYWGQGTQVTVSS	low polyreactivity
QVQLVESGGGLVQAGVSLRLICAASGRIFALNTMGWYRQAPGKEREFVAAITTSGGSTYADSVKGRFTISRDNAKNTVYFQMNSLKPEYTAVYYFNKEYFHNWAPTYDYWGQGTQVTVSS	low polyreactivity
QVQLVESGGGLVQAGVSLRLSCAASGFIFPYYAMGWYRQAPGKERELVAAITRGGRTYYADSVKGRFTISRDNAKNTVYLQMNSLKPEDTAVYYCAARSVGKRGYDYWGLGTQVTVSS	high polyreactivity
QVQLVESGGGLVQAGVSLRLSCAASGFIIYGNAMGWYRQAPGKERELVAAINQTGSSTYADSVKGRFTISRDNAKNTVYLQMNSLKPEATAVYYCNKGSWYFFLYDYWGQGTQVTVSS	low polyreactivity
QVQLVESGGGLVQAGVSLRLSCAASGFTFDYYAMGWYRQAPGKERELVAAISWSGGSTYYADSVKGRFTISRDNAKNTVFLQMNSLKPEDTAVYYCAGGRPNPRGRGLAYDFWVQGTQVTVSS	high polyreactivity
QVQLVESGGGLVQAGVSLRLSCAASGFTFWRNAMGWYRQAPGKERELVAAISASGGSTYYADSVKGRFTISRDNAKNTVYLQMNSLKPEDTAVYYCAADTQGFYRYDYWGQGTQVTVSS	low polyreactivity
QVQLVESGGGLVQAGVSLRLSCAASGITFPYYTMGCYRQAPGKERELVAAITSGGSTNYADSVKGRFTISRDNAKNTVYLQMNSLKPEDTAVYYCDGVLWLFDYWGQGTQVTVSS	high polyreactivity
QVQLVESGGGLVQAGVSLRLSCAASGRIFAVNAMGWYRQAPGKERELVASIRWSGGSTYYADSVKGRFTISRDYAKNTVYLQMNSLKPEETAVYYCAAVIYLWGQGTQVTVSS	high polyreactivity
QVQLVESGGGLVQAGVSLRLSCAASGRTFFYNAMGWYRQAPGKERELVAAISSGGGYTYYADSVKGRFTISRDNAKNTVYLQMNSLKPEDTAVYYCAAASYRQPGYGYWGQGTQVTVSS	high polyreactivity

Sequence	polyreactivity (PSR sort gate)
QVQLVESGGGLVQAGVSLRLSCAASGRTFGQYVMGWYRQAPGKERELVAAIRSGGSTYYADSVKGLFTISRDNAKNTVYIQLNSLKPEDTAVYYCNADSGPIDGRGGYWGQGTQVTVSS	low polyreactivity
QVQLVESGGGLVQAGVSLRLSCAASGRTFSSYAMGWYRQAPRKERELVPGISWRGGRTYYADSVKGRFTISRDNGKNSVYLQMNSLKREDTAVYYCNKVYRTYYGDYRFSGIPRYDYVGQGTQVTVSS	high polyreactivity
QVQLVESGGGLVQAGVSLRLSCAASGRTFYRYVMGWYRQAPGKERELVAAITPGGSTYADSVKGRFTISRDNAKNTVYLQMNSLKPEDTAVYFCNKRKASSSGYNYWGQGTQVTVSS	low polyreactivity
QVQLVESGGGLVQAGVSLRLSCAASGRTSAYSAMGWYRQAPGKERQLVAGITRGGRTNYADSVKGRFTISRDNAKNTVYLQMHSLKPEDTAVYYCAAKYGYYWNSRTSGYWGQGTQVTVSS	high polyreactivity
QVQLVESGGGLVQAGVSLRLSCAASGSFFGYYTMGWYRQAPGTERELVAAISASGGSTYYADSVKGRFTISRDNANNTVYLQLNSLKPEDTAVYYCAATSAANFPRGYYYWGQGTQVTVSS	high polyreactivity
QVQLVESGGGLVQAGVSLRLSCAASGSIFFYNARGWYRQAPRKERELVAAITTRGGSTYYADSVKGRFTISRDNAQNYVYLQMNSLKPEDTAVSYCARSSRGKLDYWGQGTQVTVSS	low polyreactivity
QVQLVESGGGLVQAGVSLRLSCAASGSIFGYYAMGWYRQAPGKERELVAAINYSGVSTYYADSVKGRFTISRDNAKNTVYLQMNSLKPDDTAVYYCAAKGRKSVYSRNSWGQGTQVTVSS	high polyreactivity
QVQLVESGGGLVQAGVSLRLSCAASGSIFQTYDMGWYRQAPGKERELVAAITGSGDSTYYADSVKGRFTISRDNAKNTVYLQMNSLKPEDTAVYYCNADGPSTPWVEYGYWGQGTQVTVSS	low polyreactivity
QVQLVESGGGLVQAGVSLRLSCAASGSIFVYNAMGWYRQAPGKERELVAAISSSGTRTYYADSVKARFTISRDNAKNTVYLQMNSLKPEDTAVYYCAAYYVPWGTLYHLDYWGQGTQVTVSS	high polyreactivity
QVQLVESGGGLVQAGVSLRLSCAASGSTFSNYAMGWYRQAPGKERELVAGIDWSGGSTYYADSVKGRFTISRDNEKITVYLQMNSLKPEDTAVYYCAKRVWYHGRKLRGYYWGQGTQVTVSS	low polyreactivity
QVQLVESGGGLVQAGVSLRLSCAASGSTFYYYAMGWYRQAPGKERELVATISSGSSTNYADSVKGRFTISRDNAKNTVYLQMNSLKPEDTAVYYCAADRWYITLSIDATISYDYWGQGTQVTVSS	low polyreactivity
QVQLVESGGGLVQAGVSLRLSCAASGSTLISNTMGWNRQAPWKERELVAAITRTGGRTYYADSVKGRFTSSRDTAKNTVDLPMNSLKPEDTAVYYCARYGGYLSLKYDYWGQGTQVTVAS	high polyreactivity
QVQLVESGGGLVQAGVSLRLSCAASGVNAMGWYRQAPGKEREFVAAITSIGGSTYYADSVKGRFTISRDNAKNTVYLQMNSLKPEDTAVYYCNTDRGPVKVSPLYESWGQGTQVTVSS	low polyreactivity
QVQLVESGGGLVQAGVSLRLSCHASGSIFYYNTMGWYRQSPGKERELVATISSDGGTNYADSVKGRFTISRDNAKYTVYLQMNSLKPEDTAVYYCAKDGSNRLALPAWDYNYWGQGTQVTVSS	low polyreactivity
QVQLVESGGGLVQARGSLLLSSAASGLIFQTYTMGWYRQAPGKERELVAAITSSGGRTYYADSVKGRFTISRDNAKNSVFLQKNSLKPEDTAVYYCAARRPPSAGMGYWGQGTQVTVSS	high polyreactivity
QVQLVESGGGLVQARGSLRLSCAASGFIFASNAMGWYRQAPGKERELVAAITKSGGRTYYADSVKARFTISRDTAKNTVYLQMNSLKPVDTAVYYCAAKVRVVHRPYDHWGQGTQVTVSS	high polyreactivity
QVQLVESGGGLVQARGSLRLSCAASGFTFGYNAMGWYRKAPGTERELVAVITQSGGRTYYADSVKGRFTISRDNANNSVYLQMNSLKPEDTAVYYCAARYRLAPYYYWGQGTQVTVSS	high polyreactivity
QVQLVESGGGLVQARGSLRLSCAASGLTFRIYAMGWYRQAPGKERELVAAITRGGSTYADSVKGRFTISRDNAKNTVYLQMNSLKPEDTAVYYCAARVRSTSQVSASPVWYYYWGLGTQVTVSS	high polyreactivity
QVQLVESGGGLVQARGSLRLSCAASGNTFPSYAMGWYRQAHGKERELVAAITSGGRTYYADSVNGRFTISRDNAKNTVYLQLNSLKPEDTAVYYCAAEWVVRYPWYRYYYWGQGTEVTVSS	high polyreactivity
QVQLVESGGGLVQARGSLRLSCAASGRIFKYNAMGWYRQAPGKESELVAAISGGGSTNYADSVKGRFTISRDNAKNTVYLLMNSLKPEDTAVYYCAKGYRRVYGPFYYWGQGTQVTVSS	low polyreactivity
